± gives the uncertainty stated by the source.
Experiment: self-splicing fitness, log relative to wild type (ln ratio); higher = more splicing; Tetrahymena group I intron in knt gene, E. coli kanamycin selection, DiMSum; sequences stand for … in CUCUCU…GGAGGGAAAAGUUAUCAGGCAUGCACCUGGUAGCUAGUCUUUAAACCAAUAGAUUGCAUCGGUUUAAAAGGCAAGACCGUCAAAUUGCGGGAAAGGGGUCAACAGCCGUUCAGUACCAAGUCUCAGGGGAAACUUUGAGAUGGCCUUGCAAAGGGUAUGGUAAUAAGCUGACGGACAUGGUCCUAACCACGCAGCCAAGUCCUAAGUCAACAGAUCUUCUGUUGAUAUGGAUGCAGUUCACAGACUAAAUGUCGGUCGGGGAAGAUGUAUUCUUCUCAUAAGAUAUAGUCGGACCUCUCCUUAAUGGGAGCUAGCGGAUGAAGUGAUGCAACACUGGAGCCGCUGGGAACUAAUUUGUAUGCGAAAGUAUAUUGAUUAGUUUUGGAGUACUCGUGGUCG
Outline: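 The eight P1ex-region nucleotides of an intron in the knt kanamycin-resistance gene on pET-22b(+) were all randomised and the library put into E. coli BL21(DE3). Six replicate transformations were grown overnight at 37°C or 30°C on LB agar with or without 25 μg/mL kanamycin, together with 100 μg/mL carbenicillin, 50 μM IPTG and 0.2% rhamnose. Colonies were pooled and amplicon-sequenced on an Illumina HiSeq 2500. Fitness from DiMSum is the error-weighted combination of wild-type-normalised replicate fold changes, kanamycin over none.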

Sequence	self-splicing fitness (ln) (30 °C)	self-splicing fitness (ln) (37 °C)
GGCCAGCAAUAUUACGGGUU	-3.08 ± 0.17	-2.06 ± 0.19
GGAAAGCAAUAUUACGCUGU	-1.07 ± 0.11	-0.375 ± 0.17
UCAGAGCAAUAUUACGGAGG	-3.4 ± 0.27	-2.33 ± 0.34
UCAUAGCAAUAUUACGUUCC	–	-1.99 ± 0.29
GGGCAGCAAUAUUACGGAAG	-3.03 ± 0.23	-1.02 ± 0.17
UUGAAGCAAUAUUACGGUGU	-3.13 ± 0.17	-1.16 ± 0.15
CCGGAGCAAUAUUACGUCCU	-4.9 ± 0.31	-2.29 ± 0.16
CUCAAGCAAUAUUACGGCAC	-2.74 ± 0.2	-1.97 ± 0.28
UCGUAGCAAUAUUACGUGGA	-2.39 ± 0.16	-2.36 ± 0.13
UGGGAGCAAUAUUACGACGA	–	-0.296 ± 0.36
CCGUAGCAAUAUUACGUCUG	-0.102 ± 0.054	0.303 ± 0.067
GAGCAGCAAUAUUACGAGGA	-2.48 ± 0.17	-2.89 ± 0.22
ACAAAGCAAUAUUACGAUAA	-1.38 ± 0.086	-1 ± 0.1
UAUCAGCAAUAUUACGGGCA	-0.0174 ± 0.066	0.193 ± 0.084
CGAUAGCAAUAUUACGGGGG	-3.7 ± 0.3	-1.49 ± 0.16
GCAUAGCAAUAUUACGUAUA	-3.23 ± 0.29	-1.52 ± 0.24
GGGUAGCAAUAUUACGGUGU	-1.09 ± 0.095	-0.365 ± 0.12
UUGCAGCAAUAUUACGGAGC	-2.2 ± 0.15	–
GAAUAGCAAUAUUACGGGGC	-3.15 ± 0.43	–
GCUUAGCAAUAUUACGUUAC	-2.56 ± 0.18	-1.88 ± 0.19
CGACAGCAAUAUUACGUCCU	-0.518 ± 0.072	-0.311 ± 0.078
ACCAAGCAAUAUUACGGCCG	-0.944 ± 0.086	-0.259 ± 0.11
CAGUAGCAAUAUUACGCGUG	-2.65 ± 0.18	-1.86 ± 0.14
CCGUAGCAAUAUUACGAGAG	-3.86 ± 0.29	-2.54 ± 0.24
GGUCAGCAAUAUUACGACAA	-0.264 ± 0.062	0.179 ± 0.093

Sequence	self-splicing fitness (ln) (30 °C)	self-splicing fitness (ln) (37 °C)
UGGAAGCAAUAUUACGGGGA	-2.19 ± 0.15	-2.16 ± 0.16
AUCAAGCAAUAUUACGAGUG	-2.19 ± 0.1	-1.28 ± 0.14
ACUCAGCAAUAUUACGGCUA	-0.553 ± 0.089	0.149 ± 0.093
GCUAAGCAAUAUUACGGUCU	-0.772 ± 0.083	-1.06 ± 0.085
CGAGAGCAAUAUUACGUUUG	-4.63 ± 0.28	-2.12 ± 0.22
GUGGAGCAAUAUUACGCUAU	-2.85 ± 0.25	–
AUUCAGCAAUAUUACGCAAA	-1.04 ± 0.14	-0.821 ± 0.16
UCUAAGCAAUAUUACGAGAA	-3.17 ± 0.5	-1.69 ± 0.39
GUCUAGCAAUAUUACGAGGU	–	-1.99 ± 0.4
UGCGAGCAAUAUUACGAGAU	-2.4 ± 0.33	-3.21 ± 0.35
AACCAGCAAUAUUACGACUU	0.018 ± 0.059	0.437 ± 0.077
CAAGAGCAAUAUUACGCUAG	–	-2.98 ± 0.35
CUUAAGCAAUAUUACGAAUA	-2.42 ± 0.27	-3.17 ± 0.43
CGCCAGCAAUAUUACGAUCG	-0.715 ± 0.063	-0.476 ± 0.092
GAAUAGCAAUAUUACGUAUA	-2.32 ± 0.15	-1.54 ± 0.15
AGCGAGCAAUAUUACGGUGC	-4.03 ± 0.28	-2.97 ± 0.24
UGUCAGCAAUAUUACGAUUU	-0.0817 ± 0.061	0.461 ± 0.082
GACCAGCAAUAUUACGGUUG	-0.661 ± 0.053	-0.341 ± 0.062
CGAGAGCAAUAUUACGCCAG	–	-1.51 ± 0.4
CAAUAGCAAUAUUACGGAGA	-2.75 ± 0.33	-2.08 ± 0.43
UGGUAGCAAUAUUACGGUGC	-2.31 ± 0.34	–
AAGCAGCAAUAUUACGCCGC	–	-2.37 ± 0.45
AGUUAGCAAUAUUACGUGAA	-2.78 ± 0.15	-2.31 ± 0.2
UCAUAGCAAUAUUACGCCUA	-2.62 ± 0.34	-1.85 ± 0.27
CCAGAGCAAUAUUACGGUGU	-3.53 ± 0.16	-2.7 ± 0.2

Sequence	self-splicing fitness (ln) (30 °C)	self-splicing fitness (ln) (37 °C)
AAUAAGCAAUAUUACGCCCG	-1.39 ± 0.15	-0.203 ± 0.18
AAUGAGCAAUAUUACGAGCC	-1.79 ± 0.44	–
GUGUAGCAAUAUUACGCCGA	–	-2.39 ± 0.42
AGGUAGCAAUAUUACGACGA	-0.363 ± 0.016	-0.00769 ± 0.034
AAAUAGCAAUAUUACGUGUU	-1.72 ± 0.083	-1.75 ± 0.11
UCUCAGCAAUAUUACGGACU	-1.23 ± 0.062	-0.345 ± 0.088
CAAAAGCAAUAUUACGAAUU	-3.52 ± 0.18	-2.27 ± 0.22
AGAAAGCAAUAUUACGAGAG	-3.2 ± 0.16	-2.44 ± 0.17
AUUAAGCAAUAUUACGACAU	0.191 ± 0.012	0.193 ± 0.032
ACGCAGCAAUAUUACGAACC	-1.99 ± 0.16	-0.986 ± 0.26
CGUUAGCAAUAUUACGGCUC	-1.75 ± 0.33	0.277 ± 0.22
UACGAGCAAUAUUACGGGCG	-0.999 ± 0.12	-0.902 ± 0.14
GAUCAGCAAUAUUACGCUUG	-1.02 ± 0.095	0.188 ± 0.12
GUCCAGCAAUAUUACGGCCG	-3.67 ± 0.24	-2.69 ± 0.19
AUCUAGCAAUAUUACGAUCU	-1.03 ± 0.13	0.148 ± 0.15
UCAGAGCAAUAUUACGCGUG	-2.31 ± 0.16	-2.05 ± 0.15
GCGAAGCAAUAUUACGUGAA	-2.3 ± 0.14	-0.526 ± 0.14
AACAAGCAAUAUUACGCGUG	-1.35 ± 0.04	-0.814 ± 0.056
GGAGAGCAAUAUUACGCACU	-2.77 ± 0.49	-1.94 ± 0.46
AGGGAGCAAUAUUACGUUCG	-3.18 ± 0.22	-1.96 ± 0.23
CAAAAGCAAUAUUACGUGCG	-1 ± 0.051	-0.35 ± 0.063
GUGCAGCAAUAUUACGCGUG	-1.52 ± 0.11	-1.66 ± 0.16
UGACAGCAAUAUUACGCGCA	-0.495 ± 0.072	0.187 ± 0.077
AUCGAGCAAUAUUACGCAAU	-2.08 ± 0.21	-2.75 ± 0.4
UGCGAGCAAUAUUACGGUUC	-2.75 ± 0.28	–

Sequence	self-splicing fitness (ln) (30 °C)	self-splicing fitness (ln) (37 °C)
GCCCAGCAAUAUUACGCCAU	-2.56 ± 0.22	-3.35 ± 0.37
GUUAAGCAAUAUUACGACGA	-1.13 ± 0.11	-1.14 ± 0.12
GAAAAGCAAUAUUACGUAAC	-2.11 ± 0.18	-1.38 ± 0.17
UUCCAGCAAUAUUACGCUUA	-0.131 ± 0.066	-0.175 ± 0.077
UCUCAGCAAUAUUACGUACU	-3.39 ± 0.28	-1.2 ± 0.19
UGAAAGCAAUAUUACGUCAU	-4.25 ± 0.22	-1.77 ± 0.14
GAGUAGCAAUAUUACGUUUG	-3.89 ± 0.16	-3.88 ± 0.24
CGACAGCAAUAUUACGCCUG	-0.901 ± 0.066	-0.0701 ± 0.069
GAUGAGCAAUAUUACGAUUU	-1.07 ± 0.14	-2.1 ± 0.18
AGUUAGCAAUAUUACGUAGA	-3.12 ± 0.14	-1.59 ± 0.14
GCUGAGCAAUAUUACGAAGG	–	-1.52 ± 0.28
CAGCAGCAAUAUUACGCCAC	-4.15 ± 0.26	-3.31 ± 0.29
UGCGAGCAAUAUUACGAAUC	-4.3 ± 0.43	-2.41 ± 0.23
UGUCAGCAAUAUUACGGCCA	-0.139 ± 0.11	-0.162 ± 0.12
GAGUAGCAAUAUUACGGUUU	-0.669 ± 0.092	-0.275 ± 0.091
CACAAGCAAUAUUACGGGUU	-2.26 ± 0.068	-1.52 ± 0.083
CUAGAGCAAUAUUACGACCU	-3.67 ± 0.27	-2.99 ± 0.33
CUAGAGCAAUAUUACGGAAU	-3.15 ± 0.27	-2.82 ± 0.38
UUCCAGCAAUAUUACGCAUA	-0.568 ± 0.093	0.161 ± 0.096
CCCUAGCAAUAUUACGGUAU	-3.5 ± 0.14	-2.13 ± 0.14
AGACAGCAAUAUUACGUAUA	-2.54 ± 0.14	-0.807 ± 0.13
CGUAAGCAAUAUUACGUCGG	-1.2 ± 0.08	-0.133 ± 0.1
ACUUAGCAAUAUUACGGUUC	-2.73 ± 0.16	-3.35 ± 0.26
GUAGAGCAAUAUUACGGUCC	-1.01 ± 0.17	-0.565 ± 0.28
